Assay results from PMC5581300.
Read-outs that look alike come from different tables or passages of the source.

Tests used:
[1] = molecular target: Plasma Membrane Calcium ATPase 4 (mouse (endogenous in sperm)) (UniProt Q6Q477); experiment: FRET or BRET
[2] = molecular target: Plasma Membrane Calcium ATPase 4 (mouse (endogenous in sperm)) (UniProt Q6Q477); experiment: FRET or BRET; remark: listed apart in the source

Chain of UniProt Q6Q477 (Q6Q477 whole entry): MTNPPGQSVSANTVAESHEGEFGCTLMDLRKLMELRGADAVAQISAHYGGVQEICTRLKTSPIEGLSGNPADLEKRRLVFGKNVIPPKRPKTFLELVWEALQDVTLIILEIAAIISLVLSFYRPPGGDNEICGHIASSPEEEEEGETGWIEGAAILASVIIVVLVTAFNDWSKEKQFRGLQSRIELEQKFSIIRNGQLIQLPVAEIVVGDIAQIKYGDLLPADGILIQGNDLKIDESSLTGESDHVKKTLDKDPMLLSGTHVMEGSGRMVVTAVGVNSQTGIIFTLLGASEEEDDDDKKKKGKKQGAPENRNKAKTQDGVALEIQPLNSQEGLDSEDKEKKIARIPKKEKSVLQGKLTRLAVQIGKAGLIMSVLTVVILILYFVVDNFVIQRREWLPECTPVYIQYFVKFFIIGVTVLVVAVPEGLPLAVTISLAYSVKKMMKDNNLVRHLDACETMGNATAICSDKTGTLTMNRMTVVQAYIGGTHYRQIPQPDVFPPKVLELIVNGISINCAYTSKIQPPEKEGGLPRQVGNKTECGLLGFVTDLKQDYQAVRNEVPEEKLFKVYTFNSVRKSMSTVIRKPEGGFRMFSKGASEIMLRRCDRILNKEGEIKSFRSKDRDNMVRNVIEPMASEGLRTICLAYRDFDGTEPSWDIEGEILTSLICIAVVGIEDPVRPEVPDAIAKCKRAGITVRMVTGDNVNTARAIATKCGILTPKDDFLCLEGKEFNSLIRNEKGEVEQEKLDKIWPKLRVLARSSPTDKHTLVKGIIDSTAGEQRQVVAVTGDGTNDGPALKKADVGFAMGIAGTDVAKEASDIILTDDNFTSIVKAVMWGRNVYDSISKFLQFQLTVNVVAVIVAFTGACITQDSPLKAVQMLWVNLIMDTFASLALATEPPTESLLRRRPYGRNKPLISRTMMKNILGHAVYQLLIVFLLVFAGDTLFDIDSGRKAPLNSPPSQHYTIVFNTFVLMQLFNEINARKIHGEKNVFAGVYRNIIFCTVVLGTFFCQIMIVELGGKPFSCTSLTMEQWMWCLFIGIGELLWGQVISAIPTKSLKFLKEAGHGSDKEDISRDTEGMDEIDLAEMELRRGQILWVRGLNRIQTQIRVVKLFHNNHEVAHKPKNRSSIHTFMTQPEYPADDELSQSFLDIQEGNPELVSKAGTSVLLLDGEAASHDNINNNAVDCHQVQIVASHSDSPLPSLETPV

- FRET efficiency [1]: 6%
- FRET efficiency [2]: 24%
Substance: neuronal nitric oxide synthase (from UniProt Q9Z0J4 1-1429) (enzyme)
